Measurements: patent publication EP1618130B1

Biological target: HLA-A2 (human)

Q: For “HLA-A2 high affinity positive control epitope from HIV-1 pol476-484 ([…]) (peptide)”, which C50 is on record?
A: Its C50 is 0.2 µM.
